This note sets out measurements from patent US20130243722A1 (NEUMEDICINES, published 2013).

The assay has as its target human IL-12 receptor on human CD14- PBMC (human, UniProt Q99665 24-862). In words: cell-based or functional assay.

Sequence of human IL-12 receptor on human CD14- PBMC (Q99665 24-862): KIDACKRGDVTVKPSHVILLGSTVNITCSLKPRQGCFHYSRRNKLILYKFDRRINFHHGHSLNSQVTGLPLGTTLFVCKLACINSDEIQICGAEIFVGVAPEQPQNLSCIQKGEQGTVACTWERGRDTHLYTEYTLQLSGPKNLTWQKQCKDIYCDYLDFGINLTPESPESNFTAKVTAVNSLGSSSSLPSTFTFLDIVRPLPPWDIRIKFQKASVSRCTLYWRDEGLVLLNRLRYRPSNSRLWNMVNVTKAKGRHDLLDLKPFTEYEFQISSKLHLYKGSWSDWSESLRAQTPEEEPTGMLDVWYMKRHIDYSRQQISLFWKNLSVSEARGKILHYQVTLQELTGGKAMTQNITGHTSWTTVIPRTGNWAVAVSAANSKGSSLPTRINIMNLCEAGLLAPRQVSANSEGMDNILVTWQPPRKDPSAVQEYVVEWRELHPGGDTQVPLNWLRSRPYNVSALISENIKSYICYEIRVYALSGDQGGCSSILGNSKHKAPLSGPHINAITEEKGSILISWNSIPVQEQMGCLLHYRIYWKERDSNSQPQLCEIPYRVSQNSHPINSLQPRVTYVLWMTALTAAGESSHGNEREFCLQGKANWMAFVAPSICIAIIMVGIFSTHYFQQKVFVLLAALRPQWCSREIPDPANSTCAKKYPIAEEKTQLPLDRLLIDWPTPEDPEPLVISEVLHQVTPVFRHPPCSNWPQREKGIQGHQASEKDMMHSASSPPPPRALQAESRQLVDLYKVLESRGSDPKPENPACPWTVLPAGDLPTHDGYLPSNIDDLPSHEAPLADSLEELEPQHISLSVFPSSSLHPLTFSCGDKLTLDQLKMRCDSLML

B1: recombinant human IL-12 (ligand)
chain 1: RNLPVATPDPGMFPCLHHSQNLLRAVSNMLQKARQTLEFYPCTSEEIDHEDITKDKTSTVEACLPLELTKNESCLNSRETSFITNGSCLASRKTSFMMALCLSSIYEDLKMYQVEFKTMNAKLLMDPKRQIFLDQNMLAVIDELMQALNFNSETVPQKSSLEEPDFYKTKIKLCILLHAFRIRAVTIDRVMSYLNAS
chain 2: IWELKKDVYVVELDWYPDAPGEMVVLTCDTPEEDGITWTLDQSSEVLGSGKTLTIQVKEFGDAGQYTCHKGGEVLSHSLLLLHKKEDGIWSTDILKDQKEPKNKTFLRCEAKNYSGRFTCWWLTTISTDLTFSVKSSRGSSDPQGVTCGAATLSAERVRGDNKEYEYSVECQEDSACPAAEESLPIEVMVDAVHKLKYENYTSSFFIRDIIKPDPPKNLQLKPLKNSRQVEVSWEYPDTWSTPHSYFSLTFCVQVQGKSKREKKDRVFTDKTSATVICRKNASISVRAQDRYYSSSWSEWASVPCS
In the case of B1, the “EC50 for stimulating IFN-γ secretion from CD14- PBMC (ELISA, 16 hours)” value is 2.51 pM.
